Laboratory results: US20210214414A1 (Pfizer, published 2021)

Key:
Human SLIT2-N [1] = molecular target: T1, Human SLIT2-N (human, UniProt O94813 31-1121, limits assumed); test: summary of the Examples (FIGS. 11-13) against ROBO2-Fc 2.2
T1 construct: domain: SLIT2-N (N terminal fragment); Soluble analyte in SPR, d2-labelled in HTRF, overexpressed on HEK293 cells in flow cytometry; also called human SLIT2-N (N terminal fragment)
T1 sequence (looked up): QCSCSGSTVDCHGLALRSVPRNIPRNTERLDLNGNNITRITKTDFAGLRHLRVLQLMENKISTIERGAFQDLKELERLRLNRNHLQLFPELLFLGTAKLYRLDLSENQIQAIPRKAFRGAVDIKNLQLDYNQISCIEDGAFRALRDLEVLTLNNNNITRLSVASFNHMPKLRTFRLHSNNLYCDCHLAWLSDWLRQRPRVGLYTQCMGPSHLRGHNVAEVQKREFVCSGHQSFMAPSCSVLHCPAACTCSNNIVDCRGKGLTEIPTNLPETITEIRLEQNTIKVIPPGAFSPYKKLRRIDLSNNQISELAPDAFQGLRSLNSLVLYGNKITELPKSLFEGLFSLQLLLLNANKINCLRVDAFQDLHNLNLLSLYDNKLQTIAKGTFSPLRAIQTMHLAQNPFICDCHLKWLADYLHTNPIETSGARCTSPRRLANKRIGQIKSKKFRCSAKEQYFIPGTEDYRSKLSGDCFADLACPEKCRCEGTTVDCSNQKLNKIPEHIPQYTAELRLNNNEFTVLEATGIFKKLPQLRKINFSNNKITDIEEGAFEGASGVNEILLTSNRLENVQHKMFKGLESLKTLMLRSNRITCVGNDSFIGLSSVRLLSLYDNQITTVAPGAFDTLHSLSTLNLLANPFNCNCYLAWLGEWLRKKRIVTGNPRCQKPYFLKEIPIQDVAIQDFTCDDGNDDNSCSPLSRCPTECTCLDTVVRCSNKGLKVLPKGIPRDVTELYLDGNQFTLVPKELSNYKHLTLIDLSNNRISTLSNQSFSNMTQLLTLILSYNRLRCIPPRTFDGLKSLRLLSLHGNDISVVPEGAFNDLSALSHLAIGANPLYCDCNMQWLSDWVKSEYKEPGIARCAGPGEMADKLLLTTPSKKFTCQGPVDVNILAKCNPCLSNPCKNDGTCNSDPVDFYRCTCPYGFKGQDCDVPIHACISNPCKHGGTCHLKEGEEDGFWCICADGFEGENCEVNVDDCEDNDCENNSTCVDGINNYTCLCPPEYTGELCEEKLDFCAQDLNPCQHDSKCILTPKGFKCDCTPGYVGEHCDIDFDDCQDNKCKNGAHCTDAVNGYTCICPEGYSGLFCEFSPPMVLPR

Human SLIT2-N [2] = molecular target: T1, Human SLIT2-N; test: flow cytometry, AF647-labelled ROBO2-Fc S17T/R73Y on HEK293 cells overexpressing human SLIT2-N (FIG. 11)
Method: After incubation, […] FACS buffer was added per well to wash the cells. After washing, cells were resuspended in buffer for data acquisition on a Fortessa Flow Cytometer.

Human SLIT2-N [3] = molecular target: T1, Human SLIT2-N; test: HTRF competition: d2-labelled human SLIT2-N binding to ROBO2 on HEK293 cells (competitor: cell surface ROBO2) (FIG. 12)
Method: After incubation, fluorescence at 665 nm and 620 nm was measured on an Envision multilabel plate reader. The HTRF Ratio was calculated as follows: fluorescence at 665 nm/fluorescence at 620 nm×10,000.

B1: ROBO2-Fc S17T/R73Y (Fc fusion)
chain: SRLRQEDFPPRIVEHPTDVIVSKGEPTTLNCKAEGRPTPTIEWYKDGERVETDKDDPRSHRMLLPSGSLFFLYIVHGRRSKPDEGSYVCVARNYLGEAVSRNASLEVALLRDDFRQNPTDVVVAAGEPAILECQPPRGHPEPTIYWKKDKVRIDDKEERISIRGGKLMISNTRKSDAGMYTCVGTNMVGERDSDPAELTVFERGGSGGSEPKSSDKTHTCPPCPAPEAAGAPSVFLFPPKPKDTLMISRTPEVTCVVVDVSHEDPEVKFNWYVDGVEVHNAKTKPREEQYNSTYRVVSVLTVLHQDWLNGKEYKCKVSNKALPAPIEKTISKAKGQPREPQVYTLPPSREEMTKNQVSLTCLVKGFYPSDIAVEWESNGQPENNYKTTPPVLDSDGSFFLYSKLTVDKSRWQQGNVFSCSVMHEALHNHYTQKSLSLSPGK
notes: Labelled with Alexa Fluor 647 in the flow cytometry assay; also called ROBO2-Fc 517T/R73Y; ROBO2-Fc S17T/R73Y-AF647
fold increase of binding affinity to SLIT2 against SEQ ID NO: 1 (Human SLIT2-N [1]): ~10 fold
EC50 (Human SLIT2-N [2]): 2.5 nM
IC50 (Human SLIT2-N [3]): 1.4 nM
